Assay results as given in paper PMC5269589, “Functional characterization of NES and GES responsible for the biosynthesis of (E)-nerolidol and (E,E)-geranyllinalool in Tripterygium wilfordii” (Scientific Reports, 2017).

B1: TwGES1 (Tripterygium wilfordii) (protein)
chain: MDFSDSSIISLVDKIKVEMFVDMDVYSFVAPSAYDTAWLAMVPDSRSPVQPLFMDCLDWVLNNQREEGFWGDIDGHGMPAIESLTSTLACLIALKKWNVGESAIQKGLDFVRENAEMYIEEIKDCCPRRFAVIFPAMLEQASSLGLDNILPNHVKDTVHVMDIFIEHRRIVEKEELVETYHYPPLLAYLEALPPNKIDKDQIVTHLSSDGSLFQSPSATASAFMITGNKDCLAYLKAIIQRCPNGVPATYPIDEDLIRLCMVNHLQRLGLAEHFTKEIKNMLTSVHRNYSTNHRSTVKDSNLLHLYKDSLAFWLLRMNGYIVSPGSFCWFMQRGDIKDRIENNYYDDDFSSVMLNVYKATDLMFPGEEDQLEEARCFARKLLENVISTTSGNQNHLHKLIGHELKTPWLARLDHLEHKMWITQEHDSTLLWMGKFSFHRLSYDNSERLTQLAVQNYKYRQSIYRKELVELKRWSREWGLSEMGFGREKTTYCYFVVAASTSLPKHSDVRLIAAKIGILITVADDFFDEHASLDELQNLTHAIQRWDGKGLSGHSRTIFEVLDDLVREIAKKYKEQQEGIDVSDSLKNLWYETFLAWLVESQWSKNGHIPSMDEYIETGMISIASHTLLLPASCFLNPSLAYHQLKPLEYENITKLLMLITRLLNDTQSYQKEQKSGKKNFVLLYLKENPEAEIEDAIEYVGEIIEKKKKEFFEYALMDGLSELPKECRHLHLACLKVYQMLFNSSNRYDSNTELIQDIQEAFYQSPDPEIGVSSSKSSSIKSTKKPVSLPQHLSFKKQNNQTTSYYHSSFDYRGSNNIAVKWASWPKWRVDGYNKSMFVTPKFSPCFI
notes: MBP fusion (pMAL-c2X) from E. coli Transetta (DE3), amylose resin; tag cleavage not mentioned
B2: TwNES (Tripterygium wilfordii) (protein)
chain: MAFFGSSRSSIIPLKTISQIVTADSTNKRGTVDSNHKSAPTTPLNDRICTEHAHKVKDFKQIINIAGEDPSEGLAIIDAVQRLGVDHHFQDEIHTILQKHYTLATGTTTHGDCMITSLRFRLLRQEGYYVSADVFEGLKDEEGKFDQNLSGDIKGLMALYEASQLSMEGENILDEARDYSSRLLNECVTQLDHDQARIVEHTLTHPHHKSLARFMAKNFLRDFHGTNGWIDDLKKLAKVDFDMAQSTYQKEVVQISQWWKELGLAEELKFARDQPVKWYIWTTTCHQDPSFSELRINLTKPISFVYLIDDIFDVYGTPQEVTDFTEAVDRWDHDAIDQLPYYMKICFKALDDITNEISYKVYKQHGWNPLDSLRKSWGRLCNAFLTEAQWFASGHLPKAEEYLENGIISSGVPVVLLHLFFLLGEGVTQKSVEMIDNTPAIVSAAAAILRLWDDLGSAKDEDQDGKDGSYLACYTNENPGCSLEDAEKHVKSKICDEWKQLNKECLSQKNPFSPSFLKACLNVSRMVPLMYEYDENRRLPRLEEFLKSILIK
notes: MBP fusion (pMAL-c2X) from E. coli Transetta (DE3), amylose resin; tag cleavage not mentioned; gene synthesized

Legend:
[1] = substrate: CC(C)=CCC/C(C)=C/CC/C(C)=C/CC/C(C)=C/COP(=O)(O)OP(=O)(O)O; test: GC-MS of hexane-extracted product; Michaelis-Menten fit; type: biochemical, Tripterygium wilfordii; details: pH 7.5, 30 °C, 10 min, Mg2+ 10 mM in text (20 mM in Figure 5 legend), no added K+ stated, product (E,E)-geranyllinalool
[2] = substrate: CC(C)=CCC/C(C)=C/CC/C(C)=C/CO[P@@](=O)(O)OP(=O)(O)O; test: as above; type: biochemical, Tripterygium wilfordii; details: 200 mM K+, pH 7.5, 30 °C, 10 min, Mg2+ 10 mM in text (20 mM in Figure 5 legend), product (E)-nerolidol

| Protein | Km [1] | Km [2] |
| --- | --- | --- |
| B1 | 2.039 µM |  |
| B2 |  | 12.700 µM |
